# Data reported in publication PMC7266990 (2020).
# Target: A. fumigatus wt CBC consisting of the HapB^230–299, HapC^40–137, and HapE^47–164 subunits (Aspergillus fumigatus)
# Experiment: SPR
binder,measurement,value
"A. fumigatus HapX^24–158 bZIP peptide (covering the CBC-binding domain, basic region, and coiled-coil domain) (domain or fragment) SPSPGPGTPGSITSKEWVIPPRPKPGRKPATDTPPTKRKAQNRAAQRAFRERRAARVNELEEQIKKIEDEHEIHIAAFKEQITNLSREVEQCRSEMTWWRDRCHALEKEVSVERSAKEAIVKEFRSSLSDREAVR",Kd,1.01 nM
